Results reported in paper doi:10.1101/2025.03.12.642038, “Structural, biophysical and biological analysis and characterisation of IRF4 DNA-binding domain mutations associated with multiple myeloma”.
Changes are numbered by the printed parent chain.

Legend:
Experiment in all cases: FP; FP: PBS + 0.05% Tween20, 5 nM DNA, 1 h, room temperature; SPR: Biacore S200, SA chip, protein 0.1-4500 nM, running buffer not given in material; errors are SD
IRF4 DBD T95K = molecular target: T1, IRF4 DBD T95K (Homo sapiens, UniProt Q15306 20-132, T95K); details: protein: recombinant; tags: N-terminal His8-linker-His8-TEV, cleaved; label: 3' fluorescein (FAM); hairpin, TTTT loop
T1 sequence: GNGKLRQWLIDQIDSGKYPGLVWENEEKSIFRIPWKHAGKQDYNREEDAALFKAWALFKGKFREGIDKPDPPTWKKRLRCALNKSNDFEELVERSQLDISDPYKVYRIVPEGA

IRF4 DBD C99R = molecular target: T2, IRF4 DBD C99R (Homo sapiens, UniProt Q15306 20-132, C99R); details: protein: recombinant; tags: N-terminal His8-linker-His8-TEV, cleaved; label: 3' fluorescein (FAM); hairpin, TTTT loop
T2 sequence: T1 sequence with K76T, C80R

IRF4 DBD T95R = molecular target: T3, IRF4 DBD T95R (Homo sapiens, UniProt Q15306 20-132, T95R); details: protein: recombinant; tags: N-terminal His8-linker-His8-TEV, cleaved; label: 3' fluorescein (FAM); hairpin, TTTT loop
T3 sequence: T1 sequence with K76R

IRF4 DBD K59R = molecular target: T4, IRF4 DBD K59R (Homo sapiens, UniProt Q15306 20-132, K59R); details: protein: recombinant; tags: N-terminal His8-linker-His8-TEV, cleaved; label: 3' fluorescein (FAM); hairpin, TTTT loop
T4 sequence: T1 sequence with K40R, K76T

IRF4 DBD wild-type = molecular target: T5, IRF4 DBD wild-type (Homo sapiens, UniProt Q15306 20-132); details: protein: recombinant; tags: N-terminal His8-linker-His8-TEV, cleaved; label: 3' fluorescein (FAM); hairpin, TTTT loop
T5 sequence: T1 sequence with K76T

IRF4 DBD C99S = molecular target: T6, IRF4 DBD C99S (Homo sapiens, UniProt Q15306 20-132, C99S); details: protein: recombinant; label: 3' fluorescein (FAM); hairpin, TTTT loop
T6 sequence: T1 sequence with K76T, C80S

IRF4 DBD D117A = molecular target: T7, IRF4 DBD D117A (Homo sapiens, UniProt Q15306 20-132, D117A); details: protein: recombinant; tags: N-terminal His8-linker-His8-TEV, cleaved; label: 3' fluorescein (FAM); hairpin, TTTT loop
T7 sequence: T1 sequence with K76T, D98A

IRF4 DBD T95A = molecular target: T8, IRF4 DBD T95A (Homo sapiens, UniProt Q15306 20-132, T95A); details: protein: recombinant; tags: N-terminal His8-linker-His8-TEV, cleaved; label: 3' fluorescein (FAM); hairpin, TTTT loop
T8 sequence: T1 sequence with K76A

IRF4 DBD S114N = molecular target: T9, IRF4 DBD S114N (Homo sapiens, UniProt Q15306 20-132, S114N); details: protein: recombinant; tags: N-terminal His8-linker-His8-TEV, cleaved; label: 3' fluorescein (FAM); hairpin, TTTT loop
T9 sequence: T1 sequence with K76T, S95N

IRF4 DBD D106Y = molecular target: T10, IRF4 DBD D106Y (Homo sapiens, UniProt Q15306 20-132, D106Y); details: protein: recombinant; tags: N-terminal His8-linker-His8-TEV, cleaved; label: 3' fluorescein (FAM); hairpin, TTTT loop
T10 sequence: T1 sequence with K76T, D87Y

## CTTGGTTTCACTTCCTGCGTTTTCGCAGGAAGTGAAACCAAG (structured_DNA) [IRE hairpin (FAM)]
IRF4 DBD T95K
  Kd: 298 ± 154 nM
IRF4 DBD C99R
  Kd: 279 ± 286 nM
IRF4 DBD T95R
  Kd: 151 ± 72 nM
IRF4 DBD K59R
  Kd: 350 ± 275 nM
IRF4 DBD wild-type
  Kd: 565 ± 191 nM
IRF4 DBD C99S
  Kd: 243 ± 238 nM
IRF4 DBD D117A
  Kd: 109 ± 31 nM
IRF4 DBD T95A
  Kd: 105 ± 59 nM
IRF4 DBD S114N
  Kd: 181 ± 14 nM
IRF4 DBD D106Y
  Kd: 219 ± 261 nM
